In assay [1] the target is T1, human tenascin-C rCd4-His-FBG (rat; human, UniProt P05540 207-392, limits assumed).
T1 construct: domain: domains 3 and 4; C-terminal FBG fusion; biotinylated in the ELISA and HTRF screens; also called Hu TNC; human TNC rCd4-His-FBG; not shown: 6His tag
T1 sequence (chain (part 1 of 2)): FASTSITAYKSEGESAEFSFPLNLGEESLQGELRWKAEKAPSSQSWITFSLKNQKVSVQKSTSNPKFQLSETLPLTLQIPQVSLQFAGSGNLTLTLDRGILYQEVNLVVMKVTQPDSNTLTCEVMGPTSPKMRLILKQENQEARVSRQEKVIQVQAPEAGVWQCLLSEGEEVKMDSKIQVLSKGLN
T1 sequence (chain (part 2 of 2)): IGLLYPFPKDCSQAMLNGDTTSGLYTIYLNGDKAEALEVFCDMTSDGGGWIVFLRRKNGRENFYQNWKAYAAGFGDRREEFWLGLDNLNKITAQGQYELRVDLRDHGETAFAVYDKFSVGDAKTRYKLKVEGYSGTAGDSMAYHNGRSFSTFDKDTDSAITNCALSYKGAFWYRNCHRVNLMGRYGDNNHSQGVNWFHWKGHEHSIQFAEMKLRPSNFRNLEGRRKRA
As to the kind of experiment: SPR, 25 C. Background: In SPR one partner is held on a chip, and binding of the other changes the refractive index at the surface.

For assay [2], the target named is T2, mouse tenascin-C rCd4-His-FBG (rat; mouse, UniProt P05540 207-392, limits assumed).
T2 construct: domain: domains 3 and 4; C-terminal FBG fusion; biotinylated in the ELISA screen; also called Mu TNC; mouse TNC rCd4-His-FBG; not shown: 6His tag
T2 sequence (chain (part 1 of 2)): T1 sequence (chain (part 1 of 2))
T2 sequence (chain (part 2 of 2)): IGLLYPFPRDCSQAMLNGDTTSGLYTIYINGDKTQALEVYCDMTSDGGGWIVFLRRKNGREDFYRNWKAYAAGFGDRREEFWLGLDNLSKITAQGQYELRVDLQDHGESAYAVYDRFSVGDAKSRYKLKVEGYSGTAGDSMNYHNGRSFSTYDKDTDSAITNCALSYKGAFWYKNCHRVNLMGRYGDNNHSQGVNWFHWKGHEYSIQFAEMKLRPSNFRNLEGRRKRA
As to the kind of experiment: SPR steady state, captured Fab, 25 C. The protocol: (§1) Experiments were performed using a BIAcore T100 instrument with CM5 sensor chip according to the protocol provided with the Human Fab Capture Kit (GE, 28-9583-25). […] After reference signal subtraction, the data was fitted to a global 1:1 fit using the T100 BIAevaluation software (FIGS. 6 a-d).

Assay [3] addresses T3, human tenascin-R rCd4-His-FBG (rat; human, UniProt P05540 207-392, limits assumed).
T3 construct: domain: domains 3 and 4; C-terminal FBG fusion; also called Hu TNR; human TNR rCd4-His-FBG; not shown: 6His tag
T3 sequence (chain (part 1 of 2)): T1 sequence (chain (part 1 of 2))
T3 sequence (chain (part 2 of 2)): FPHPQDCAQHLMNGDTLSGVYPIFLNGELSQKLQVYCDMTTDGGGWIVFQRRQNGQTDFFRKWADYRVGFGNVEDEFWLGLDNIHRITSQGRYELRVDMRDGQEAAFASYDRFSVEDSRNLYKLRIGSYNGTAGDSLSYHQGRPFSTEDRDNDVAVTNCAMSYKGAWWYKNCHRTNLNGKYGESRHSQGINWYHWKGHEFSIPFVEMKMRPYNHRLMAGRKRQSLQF
Description: SPR steady state, captured Fab, 25 C. The protocol: as §1

Another assay deals with T4, Human FGB-rCd4.
T4 construct: Not the same construct as m1, which has the FBG at the C terminus; also called human TNC FBG-rCD4; human tenascin-C FBG-rCd4-His (FBG at the N terminus of the rat Cd4 tag); not shown: rat Cd4 (domains 3 and 4) tag, the C-terminal His6 tag and the vector-derived junction residues of pBIOCAM4
T4 chain: T1 sequence (chain (part 2 of 2))
As to the kind of experiment: ELISA (DELFIA), antigen coated on the well, purified Fab at 50 nM, detected with anti-kappa or anti-lambda mAb and Europium-conjugated anti-mouse mAb.

A further assay deals with T5, human Fc-His-FBG (human, UniProt P24821 1974-2201).
T5 sequence: T1 sequence (chain (part 2 of 2))
As to the kind of experiment: cell-based or functional assay.

The target in assay [4] is T2, mouse tenascin-C rCd4-His-FBG. Description: SPR, captured Fab, 25 C. The protocol: as §1
The target of assay [5] is T3, human tenascin-R rCd4-His-FBG. Description: SPR, captured Fab, 25 C. The protocol: as §1
Assay [6] concerns the target T1, human tenascin-C rCd4-His-FBG. Description: SPR, captured Fab, 25 C. The protocol: as §1
The target of assay [7] is T6, rat tenascin-C rCd4-His-FBG (rat, UniProt P05540 207-392, limits assumed).
T6 construct: domain: domains 3 and 4; C-terminal FBG fusion; also called Rat TNC; rat TNC rCD4-His-FBG; not shown: 6His tag
T6 sequence (chain (part 1 of 2)): T1 sequence (chain (part 1 of 2))
T6 sequence (chain (part 2 of 2)): T2 sequence (chain (part 2 of 2)) with A72T
As to the kind of experiment: SPR, captured Fab, 25 C. The protocol:
as §1

Assay [8] addresses T2, mouse tenascin-C rCd4-His-FBG. Description: SPR, parental antibody.
The target of assay [9] is T1, human tenascin-C rCd4-His-FBG. As to the kind of experiment: SPR, 25 C; format not stated; SPR at 25 C.

Where a chain is given by its changes, count along the chain named.

The text below walks through data of US20170306005A1 (NASCIENT, published 2017).

B1: Fab B12 (Fab, V domains shown)
VH: QVQLVESGGGLVQPGRSLRLSCAASGFTFDDYAMHWVRQAPGKGLEWVSGISGSGGSTYYADSVKGRFTISRDNAKNSLYLQMNSLRAEDTALYYCAKDISAVPDTFDIWGQGTMVTVSS
VL: DIQMTQSPASLPTPVGDRVTITCRASQYIQGFLNWYQQKPGKAPKLLIYDASNLETGVPSRFSGSGSGTDFTLTISSLQPEDFATYYCQQSYSTPQTFGQGTKVDIKR
notes: monomeric Fab
By Kd is commonly meant a measure of binding affinity in units of concentration. As a reminder, the koff is the first-order rate constant of dissociation. Low values mean slow dissociation, high ones fast dissociation. A word on the kon: it is the second-order rate constant of association. A lower kon goes with slower complex formation. For the molecule B1, the “fold stronger affinity than 2A5” value in assay [1] was approximately 100 fold. The Kd in assay [2] is 18.7 nM; in assay [3], 36.1 nM; in [4], 13 nM; in assay [5] it was 33.9 nM; in assay [6], 0.111 nM; in assay [7], 7.9 nM. In the assay with Human FGB-rCd4, the binding result is reported as “binds”. The “IC50, inhibition of Fc-His-HuFBG-evoked IL-8 release, THP1-Blue cells” value in the assay with human Fc-His-FBG is 6.9 nM. Further, the “IC50, inhibition of Fc-His-HuFBG-evoked alkaline phosphatase, THP1-Blue cells” value with human Fc-His-FBG was 1.7 nM. Further, the koff in assay [4] was 0.0675 s⁻¹; in assay [5] it was 0.0473 s⁻¹; in [6], 0.0003 s⁻¹; in [7], 0.0748 s⁻¹. The kon was found to be 5.22e+06 M⁻¹ s⁻¹ in assay [4], 1.4e+06 M⁻¹ s⁻¹ in assay [5], 2.66e+06 M⁻¹ s⁻¹ in assay [6] and 9.46e+06 M⁻¹ s⁻¹ in assay [7].

B2: Fab 2A5 (Fab, V domains shown)
VH: EVRLVQSGAEVKKPGASVKVSCKVSGYTLTELSMHWVRQAPGKGLEWMGGFDPEDGETIYAQKFQGRVTMTEDTSTDTAYMELSSLRSEDTAVYYCATAQKETYALTYWGQGTLVTVSS
VL: B1 VL with P14S, K45R, D50A, N53T, E55Q, T56D, S67Y, Q96W, D105E
notes: monomeric Fab
On to B2, for which the “fold difference in affinity between human and mouse rCd4-his-FBG” value in assay [8] stood at 6.9 fold. For the same molecule, the binding result in the assay with Human FGB-rCd4 is “binds”. Besides, in the assay with human Fc-His-FBG, the “IC50, inhibition of Fc-His-HuFBG-evoked IL-8 release, THP1-Blue cells” value came to 28.5 nM and the “IC50, inhibition of Fc-His-HuFBG-evoked alkaline phosphatase, THP1-Blue cells” value amounted to 20.6 nM. The molecule also yielded a Kd in assay [9] of 15 nM. Moreover, in assay [4], the affinity, expressed as Kd, was 78.6 nM; the koff amounted to 0.0347 s⁻¹; the kon is 441000 M⁻¹ s⁻¹. In assay [6], binding was put at a Kd of 11.4 nM, the koff is 0.00563 s⁻¹ and the kon is 496000 M⁻¹ s⁻¹.
